Assay results published in PMC3658131.

Tests used:
Assay in all cases: ELISA
[1] = target: Staphylococcus aureus protein A (SpA), wild type, full-length (Staphylococcus aureus) (UniProt P02976)
[2] = target: Bd-cys dimer (affinity-purified cysteine-terminated B-domain, largely dimers linked by a disulfide bond), unlabeled (Staphylococcus aureus)
[3] = target: FL-labeled Bd-cys dimer (disulfide-linked dimer of cysteine-terminated B-domain labelled with FITC) (Staphylococcus aureus)

Chain of UniProt P02976 (P02976 37-485): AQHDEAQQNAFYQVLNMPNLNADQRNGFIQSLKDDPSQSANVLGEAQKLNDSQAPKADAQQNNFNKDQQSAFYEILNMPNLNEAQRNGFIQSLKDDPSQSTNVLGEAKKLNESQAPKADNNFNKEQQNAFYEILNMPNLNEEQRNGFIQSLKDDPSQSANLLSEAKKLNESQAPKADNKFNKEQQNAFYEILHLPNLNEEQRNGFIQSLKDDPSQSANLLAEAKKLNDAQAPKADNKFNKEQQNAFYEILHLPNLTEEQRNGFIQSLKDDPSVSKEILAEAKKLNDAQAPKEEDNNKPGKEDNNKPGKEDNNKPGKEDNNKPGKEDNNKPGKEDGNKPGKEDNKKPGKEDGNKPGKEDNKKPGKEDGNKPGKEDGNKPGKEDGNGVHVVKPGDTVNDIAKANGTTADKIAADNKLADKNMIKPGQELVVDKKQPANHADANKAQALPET

Substance | net absorbance at 405 nm (net absorbance (405 nm)) [1] | net absorbance at 405 nm (net absorbance (405 nm)) [2] | net absorbance at 405 nm (net absorbance (405 nm)) [3]
HRP-conjugated guinea pig IgG (antibody) | 0.84 | 0.85 | 0.16
HRP-conjugated rabbit IgG (antibody) | 1.25 | 0.98 | 0.21
